The record followed here is patent US20180355064A1 (GLENMARK PHARMACEUTICALS S A, published 2018).

For this assay, the target named is T1, human CD3 epsilon on HPB-ALL cells (human, UniProt P07766 23-207).
T1 construct: whole, on cells; also called human CD3 epsilon positive T cell tumour line
In words: FACS, median fluorescence intensity on HPB-ALL cells.

Protocol: HPB-ALL cells (DSMZ, Braunschweig, Germany, Cat. No: ACC483) were used as CD3 positive cell line for FACS staining. […] After washing, cells were incubated with a 1/200 dilution of anti-Human Fc-PE (EBioscience, Vienna, Austria) for 45 min on ice. Cells were then washed again and resuspended in 200 ul FACS buffer.

B1: humanized OKT3 prototype antibody VH/VL (antibody, human IgG1, kappa, V domains shown)
VH: EVQLVESGGGLVQPGGSLRLSCAASGYTFTRYTIHWVRQAPGKGLEWVAYINPSRGYTRYADSVKGRFTISADTSKNTAYLQMNSLRAEDTAVYYCARYYDDHYCLDYWGQGTLVTVSS
VL: DIQMTQSPSSLSASVGDRVTITCRASSSVSYVAWYQQKPGKAPKLLIYDTSKLYSGVPSRFSGSRSGTDFTLTISSLQPEDFATYYCQQWSSNPPTFGQGTKVEIKR
As to B1, the binding result is “no binding”.
